Molecular target: the molecule itself
Test: crystal structure

B1: Pseudomonas aeruginosa single-stranded DNA-binding protein (PaSSB) (natural protein, UniProt P40947 1-165, looked up)
chain: MARGVNKVILVGNVGGDPETRYMPNGNAVTNITLATSESWKDKQTGQQQERTEWHRVVFFGRLAEIAGEYLRKGSQVYVEGSLRTRKWQGQDGQDRYTTEIVVDINGNMQLLGGRPSGDDSQRAPREPMQRPQQAPQQQSRPAPQQQPAPQPAQDYDSFDDDIPF
- stoichiometry N: 4

Source: paper PMC9076272 (RSC Advances, 2019)
